Earlier results in article PMC2787657.
Read-outs that look alike come from different tables or passages of the source.

Legend:
[1] = biological target: CI-MPR cytoplasmic domain (Homo sapiens) (UniProt P11717)
[2] = biological target: CI-MPR cytoplasmic domain (Homo sapiens) (UniProt P11717); remark: listed apart in the source

UniProt P11717, sequence (P11717 2328-2491): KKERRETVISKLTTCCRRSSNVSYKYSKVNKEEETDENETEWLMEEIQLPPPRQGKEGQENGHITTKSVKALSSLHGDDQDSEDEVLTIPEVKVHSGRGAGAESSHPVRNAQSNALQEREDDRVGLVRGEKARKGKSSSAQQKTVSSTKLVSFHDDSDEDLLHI

Kd [1]: 900 nM
Kd [2]: 300 nM
Substance: TIP47 (from UniProt O60664)
